Key:
[1] = target: T1, NSMF WT (UniProt Q6X4W1 1-530); test: EMSA; low affinity; EMSA: 50 mM Tris-HCl pH 7.5, 50 mM NaCl, 1 mM DTT, 0.01% Tween-20, 23°C, 10 nM labeled DNA; NSMF-DNA gels 1.5% agarose in 1xTBE at 4°C; conditions: protein: recombinant, tags: N-term 3xFLAG, C-term 10xHis (MBP cleaved)
T1 sequence: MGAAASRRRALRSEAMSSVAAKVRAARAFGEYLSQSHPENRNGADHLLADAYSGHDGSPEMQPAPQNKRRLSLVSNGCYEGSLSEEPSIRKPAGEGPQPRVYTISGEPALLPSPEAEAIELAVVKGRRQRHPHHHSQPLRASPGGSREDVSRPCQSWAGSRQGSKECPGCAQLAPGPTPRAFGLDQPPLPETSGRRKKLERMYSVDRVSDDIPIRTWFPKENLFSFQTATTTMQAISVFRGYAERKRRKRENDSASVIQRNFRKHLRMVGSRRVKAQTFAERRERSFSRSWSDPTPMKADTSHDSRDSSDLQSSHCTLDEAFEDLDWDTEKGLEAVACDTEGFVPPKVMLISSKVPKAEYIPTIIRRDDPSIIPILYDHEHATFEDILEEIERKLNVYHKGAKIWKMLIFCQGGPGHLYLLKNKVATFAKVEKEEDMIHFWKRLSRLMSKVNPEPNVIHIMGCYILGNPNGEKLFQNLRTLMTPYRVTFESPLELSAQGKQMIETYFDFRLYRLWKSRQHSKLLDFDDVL

[2] = target: T2, RPA-eGFP heterotrimer (human, UniProt P27694;P15927;P35244 1-616;1-270;1-121); test: single-molecule fluorescence; EMSA: 50 mM Tris-HCl pH 7.5, 50 mM NaCl, 1 mM DTT, 0.01% Tween-20, 23°C, 10 nM labeled DNA; NSMF-DNA gels 1.5% agarose in 1xTBE at 4°C; conditions: protein: recombinant; tags: 6xHis; eGFP at C-term of RPA70; copies: 1;1;1; label: 5' biotin
T2 sequence (P27694 whole entry, chain 1 of 3): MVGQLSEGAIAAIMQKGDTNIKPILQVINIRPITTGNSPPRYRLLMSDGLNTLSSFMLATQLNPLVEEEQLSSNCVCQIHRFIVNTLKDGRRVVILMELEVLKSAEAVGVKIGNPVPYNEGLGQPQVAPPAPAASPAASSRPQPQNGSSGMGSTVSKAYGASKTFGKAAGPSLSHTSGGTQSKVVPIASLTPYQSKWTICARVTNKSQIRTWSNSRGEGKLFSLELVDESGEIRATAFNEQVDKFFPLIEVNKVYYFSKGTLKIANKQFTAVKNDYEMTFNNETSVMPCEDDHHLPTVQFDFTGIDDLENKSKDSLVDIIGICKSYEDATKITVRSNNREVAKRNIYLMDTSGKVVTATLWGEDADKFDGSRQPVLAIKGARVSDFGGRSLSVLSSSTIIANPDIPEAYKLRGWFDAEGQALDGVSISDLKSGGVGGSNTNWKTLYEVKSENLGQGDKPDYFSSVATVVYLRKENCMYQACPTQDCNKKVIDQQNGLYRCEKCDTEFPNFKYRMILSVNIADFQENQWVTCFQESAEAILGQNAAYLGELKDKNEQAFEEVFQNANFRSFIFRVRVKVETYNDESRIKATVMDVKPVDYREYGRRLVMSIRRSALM
T2 sequence (P15927 whole entry, chain 2 of 3): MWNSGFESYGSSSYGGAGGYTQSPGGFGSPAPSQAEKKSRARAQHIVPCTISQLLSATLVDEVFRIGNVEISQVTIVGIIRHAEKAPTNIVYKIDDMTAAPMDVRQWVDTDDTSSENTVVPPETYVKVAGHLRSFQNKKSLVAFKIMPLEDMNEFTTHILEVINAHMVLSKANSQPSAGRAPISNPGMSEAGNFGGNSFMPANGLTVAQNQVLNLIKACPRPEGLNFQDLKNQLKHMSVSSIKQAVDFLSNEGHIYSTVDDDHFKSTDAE
T2 sequence (P35244 whole entry, chain 3 of 3): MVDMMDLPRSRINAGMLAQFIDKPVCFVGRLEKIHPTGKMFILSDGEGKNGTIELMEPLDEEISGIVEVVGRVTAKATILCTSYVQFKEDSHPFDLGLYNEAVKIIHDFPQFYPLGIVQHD

[3] = target: T3, RPA heterotrimer WT (RPA70/RPA32/RPA14) (human, UniProt P27694;P15927;P35244 1-616;1-270;1-121); test: EMSA; single shifted band; EMSA: 50 mM Tris-HCl pH 7.5, 50 mM NaCl, 1 mM DTT, 0.01% Tween-20, 23°C, 10 nM labeled DNA; NSMF-DNA gels 1.5% agarose in 1xTBE at 4°C; conditions: protein: recombinant; tags: untagged; 7xHis version also made; copies: 1;1;1; label: 5' Cy5
T3 sequence (P27694 whole entry, chain 1 of 3): as the sequence (P27694 whole entry, chain 1 of 3) above
T3 sequence (P15927 whole entry, chain 2 of 3): as the sequence (P15927 whole entry, chain 2 of 3) above
T3 sequence (P35244 whole entry, chain 3 of 3): as the sequence (P35244 whole entry, chain 3 of 3) above

[4] = target: T1, NSMF WT; test: EMSA; up to 3000 nM NSMF; EMSA: 50 mM Tris-HCl pH 7.5, 50 mM NaCl, 1 mM DTT, 0.01% Tween-20, 23°C, 10 nM labeled DNA; NSMF-DNA gels 1.5% agarose in 1xTBE at 4°C; conditions: protein: recombinant; tags: N-term 3xFLAG, C-term 10xHis (MBP cleaved); label: Cy3 on Oligo1, Cy5 on RNA oligo; bubble 1:2, RNA strand 3 paired to strand 2 in bubble
[5] = target: T4, pmRPA-S33D (human, UniProt P27694;P15927;P35244 1-616;1-270;1-121, S33D;RPA32); test: EMSA; one shifted band; EMSA: 50 mM Tris-HCl pH 7.5, 50 mM NaCl, 1 mM DTT, 0.01% Tween-20, 23°C, 10 nM labeled DNA; NSMF-DNA gels 1.5% agarose in 1xTBE at 4°C; conditions: protein: recombinant; tags: 7xHis; copies: 1;1;1; label: 5' Cy5
T4 sequence (P27694 whole entry, stated change not applied, chain 1 of 3): as the sequence (P27694 whole entry, chain 1 of 3) above
T4 sequence (P15927 whole entry S33D, chain 2 of 3): as the sequence (P15927 whole entry, chain 2 of 3) above, with S33D counted along it
T4 sequence (P35244 whole entry, stated change not applied, chain 3 of 3): as the sequence (P35244 whole entry, chain 3 of 3) above

[6] = target: DBM-RPA (human, UniProt P27694;P15927;P35244 1-616;1-270;1-121, W107A;F135A;RPA32); test: EMSA; 25 nM; single molecule bound; EMSA: 50 mM Tris-HCl pH 7.5, 50 mM NaCl, 1 mM DTT, 0.01% Tween-20, 23°C, 10 nM labeled DNA; NSMF-DNA gels 1.5% agarose in 1xTBE at 4°C; conditions: protein: recombinant; copies: 1;1;1; label: 5' Cy5
Chain of DBM-RPA (P27694 whole entry, stated change not applied, chain 1 of 3): as the sequence (P27694 whole entry, chain 1 of 3) above
Chain of DBM-RPA (P15927 whole entry W107A/F135A, chain 2 of 3): as the sequence (P15927 whole entry, chain 2 of 3) above, with W107A, F135A counted along it
Chain of DBM-RPA (P35244 whole entry, stated change not applied, chain 3 of 3): as the sequence (P35244 whole entry, chain 3 of 3) above

[7] = target: T3, RPA heterotrimer WT (RPA70/RPA32/RPA14); test: EMSA; two shifted bands up to 150 nM RPA; EMSA: 50 mM Tris-HCl pH 7.5, 50 mM NaCl, 1 mM DTT, 0.01% Tween-20, 23°C, 10 nM labeled DNA; NSMF-DNA gels 1.5% agarose in 1xTBE at 4°C; conditions: protein: recombinant; tags: untagged; 7xHis version also made; copies: 1;1;1; label: 5' Cy5
[8] = target: T4, pmRPA-S33D; test: EMSA; two shifted bands; EMSA: 50 mM Tris-HCl pH 7.5, 50 mM NaCl, 1 mM DTT, 0.01% Tween-20, 23°C, 10 nM labeled DNA; NSMF-DNA gels 1.5% agarose in 1xTBE at 4°C; conditions: protein: recombinant; tags: 7xHis; copies: 1;1;1; label: 5' Cy5
[9] = target: T3, RPA heterotrimer WT (RPA70/RPA32/RPA14); test: EMSA; three shifted bands; EMSA: 50 mM Tris-HCl pH 7.5, 50 mM NaCl, 1 mM DTT, 0.01% Tween-20, 23°C, 10 nM labeled DNA; NSMF-DNA gels 1.5% agarose in 1xTBE at 4°C; conditions: protein: recombinant; tags: untagged; 7xHis version also made; copies: 1;1;1; label: 5' Cy5
[10] = target: T2, RPA-eGFP heterotrimer; test: single-molecule photobleaching; three steps predominant; EMSA: 50 mM Tris-HCl pH 7.5, 50 mM NaCl, 1 mM DTT, 0.01% Tween-20, 23°C, 10 nM labeled DNA; NSMF-DNA gels 1.5% agarose in 1xTBE at 4°C; conditions: protein: recombinant; tags: 6xHis; eGFP at C-term of RPA70; copies: 1;1;1; label: 5' biotin
[11] = target: T2, RPA-eGFP heterotrimer; test: single-molecule photobleaching; two steps predominant; EMSA: 50 mM Tris-HCl pH 7.5, 50 mM NaCl, 1 mM DTT, 0.01% Tween-20, 23°C, 10 nM labeled DNA; NSMF-DNA gels 1.5% agarose in 1xTBE at 4°C; conditions: protein: recombinant; tags: 6xHis; eGFP at C-term of RPA70; copies: 1;1;1; label: 5' biotin

B1: Fork (Y-shape) (mixed)
DNA 1: GCCAGGGACGAGGTGAACCTGCAGGTGGGCGGCTACTACTTTTTTTTTTTTTTTTTTTTTTTTTTTTTTTTTTTTTTTT
DNA 2: TTTTTTTTTTTTTTTTTTTTTTTTTTTTTTTTTTTTTTTAGTAGTAGCCGCCCACCTGCAGGTTCACCTCGTCCCTGGC
- binding result ([1]; label: 5' Cy5 on strand 1, fork 1:2, two poly-dT arms): binds

Binder: TTTTTTTTTTTTTT (ssDNA) [Biotinylated 14-nt ssDNA]
- binding result [2]: binds

Binder: TTTTTTTTTTTTTT (ssDNA) [14-nt ssDNA (dT14)]
- binding result [3]: binds

B2: PTJ (primer-template junction) (mixed)
DNA 1: TGGCGACGGCAGCGAGGCAGGTCAGGAATTCTGATC
DNA 2: GATCAGAATTCCTGACCT
- binding result ([1]; 18 bp duplex, 5' overhang 18 nt on strand 1): binds

B3: R-loop (mixed)
DNA 1: GCCAGGGACGAGGTGAACCTGCAGGTGGGCGGCTACTACTTAGATGTCATCCGAGGCTTATTGGTAGAATTCGGCAGCGTCATGCGACGGC
DNA 2: GCCGTCGCATGACGCTGCCGAATTCTACCACGCGATTCATACCTGTCGTGCCAGCTGCTTTGCCCACCTGCAGGTTCACCTCGTCCCTGGC
RNA: GCAGCUGGCACGACAGGUAUGAAUC
- binding result [4]: no binding

Binder: TTTTTTTTTTTTTTTTTTTTTTTTTTTTTT (ssDNA) [30-nt ssDNA (dT30)]
- binding result [5]: binds
- binding result [6]: binds
- binding result [7]: binds

B4: 60-nt ssDNA (ssDNA)
DNA: TATTCATTGTTTTACCTATTGTACCTTATTCTTAATTCATTTTACTAATCATTTACGAGT
- binding result [8]: binds
- binding result [9]: binds

B5: Biotinylated 60-nt ssDNA (ssDNA)
DNA: B4 DNA
- binding result [10]: binds

Binder: TTTTTTTTTTTTTTTTTTTTTTTTTTTTTT (ssDNA) [Biotinylated 30-nt ssDNA]
- binding result [11]: binds

Reference: article PMC10450186
